# Measured values: the DeepSol protein solubility set
# Test: soluble on expression in E. coli; label from the status in PepcDB or PDB records
row,Sequence,soluble on expression in E. coli
1,MSNYSVSLVGPAPWGFRLQGGKDFNMPLTISSLKDGGKAAQANVRIGDVVLSIDGINAQGMTHLEAQNKIKGCTGSLNMTLQRASAAPKPEPVPVQKGEPKEVVKPVPITSPAVSKVTSTNNMAYNKAPRPFGSVSSPKVTSIPSPSSAFTPAHATTSSHASPSPVAAVTPPLFAASGLHANANLSADQSPSALSAGKTAVNVPRQPTVTSVCSETSQELAEGQRRGSQGDSKQQNGPPRKHIVERYTEFYHVPTHSDASKKRLIEDTEDWRPRTGTTQSRSFRILAQITGTEHLKESEADNTKKANNSQEPSPQLASSVASTRSMPESLDSPTSGRPGVTSLTTAAAFKPVGSTGVIKSPSWQRPNQGVPSTGRISNSAAYSGSVAPANSALGQTQPSDQDTLVQRAEHIPAGKRTPMCAHCNQVIRGPFLVALGKSWHPEEFNCAHCKNTMAYIGFVEEKGALYCELCYEKFFAPECGRCQRKILGEVINALKQTWHVSCFVCVACGKPIRNNVFHLEDGEPYCETDYYALFGTICHGCEFPIEAGDMFLEALGYTWHDTCFVCSVCCESLEGQTFFSKKDKPLCKKHAHSVNF,soluble
2,MSPAQSKPVESMTVFNTEEVDTKKQPMFFGKPLGVQRYDSYKYPVFDKLTQQQLGYFWRPEEVSLQKDRGDYQQLTPEQKHIFTSNLKYQIMLDSVQGRAPGMAFAPYCSLPELEGCINVWQFMEMIHSRSYTYIIKNVYSDPSEVFDTIIKDTNILQRAESVTKSYDDFVNDAHEYDSGNAWKFAREGHPAGTLDRRELKRKLYRAIANVNILEGIRFYVSFACSFAFGENKLMEGSAKILSLISRDESQHLVITQQILKKWADGDDPEMQEIAKEEKSFVKDMFRNTVNEEKAWADYLFKEGSMIGLNARLLNNYVEWIANRRMKAIGLDPIYDQPLRNNPLPWTEHWLNSKGQQNAPQETEIESYVIGGIKQDVKGDSFAGFKL,not soluble
3,MSPEYAMEGIFSVKSDVFSFGVLVLEIVSGKRNRGFHNSGQDNNLLGYTWENWKEGKGLEIVDSIIVDSSSSMSLFQPHEVLRCIQIGLLCVQERAEDRPKMSSVIVPFCTR,not soluble
4,MSPGSSTGMVSEKCGDAESKRAPYPPPLRLARRVCYPQYTQKSLDMRAQEKLVGRKRDMKMARFLAKQAKESKEMVKKAAKETTEKTTKNDSTV,not soluble
5,MSPIEKSSKLENVCYDIRGPVLKEAKRLEEEGNKVLKLNIGNPAPFGFDAPDEILVDVIRNLPTAQGYCDSKGLYSARKAIMQHYQARGMRDVTVEDIYIGNGVSELIVQAMQALLNSGDEMLVPAPDYPLWTAAVSLSSGKAVHYLCDESSDWFPDLDDIRAKITPRTRGIVIINPNNPTGAVYSKELLMEIVEIARQHNLIIFADEIYDKILYDDAEHHSIAPLAPDLLTITFNGLSKTYRVAGFRQGWMVLNGPKKHAKGYIEGLEMLASMRLCANVPAQHAIQTALGGYQSISEFITPGGRLYEQRNRAWELINDIPGVSCVKPRGALYMFPKIDAKRFNIHDDQKMVLDFLLQEKVLLVQGTAFNWPWPDHFRIVTLPRVDDIELSLSKFARFLSGYHQL,soluble
6,MSPTGNYLNAITNRRTIYNLKPELPQGVGLDDVKRTVHVILKNTPTAFNSQVNRAVIIVGDTHKRIWDAVASAMPTAEAKKRPESCRDEAYGSVIFFTDEGPTEKLQRDFPALAAAFPTCAAHTTGAVQIQSWTALELLGLGANLQHYNDYVKSALPQDVPIAWTVQSQLVFGVPTALPEEKTFINNVINVYH,soluble
7,MSPWQHYQKDLTRDGFSHDPAQEIAVKALQRVYEDLTAAEEPNSLFGKLFTSFGLTSAPAPTKGLYLWGGVGRGKTYLMDTFFDTLPGNQKLRAHFHRFMHQLHLDLDALKGTRDPLLVIAKQMAAKYRVICFDEFFVSDITDAMLLGTLFQALFKEGVVLVATSNIIPDDLYKNGLQRARFLPAIALINQHCEVLNVDSGIDYRLRTLEQAEIYHHPLDEQADTNLLRYFGQLAPEAEISTEAIEIEGRAISIRQQAQGVLLADFRALCDGPRSQRDYMELARIYHTVLVSGIEQMGAFLTGDDIARRFLAMVDEFYERNVKLIVSAQVPLEDIYADGLLSFEFRRCRSRLIEMQSHDYLKSEHLPLEHHHHHH,not soluble
8,MSQATARHSVTSSPVSTGQLEEPISRLRVPTEDELPQKLRDIHMRIRKKFGFVPNFLTALSANPGTALRIMAFYEHLFDQSNSHLSASERELIAVVTSVATGCSYCVFNHRPALAAALGDRVLADRIARNHNDVTLAPRERALADLAQKLAATPHSVGSDDFARLRAIGFSEPAILEVLEVSAFFSYGNRLTIALNVLPDPQFFVSAMAGDPLEHHHHHH,not soluble
9,MSQPPLLSGPGGRLLGAALLIGLLAGCGSVSTGNAGSGTVGTSTTSRADVMTFQPSSLPVSYVGETYNVQVGVTGGVGPYGYRLTAGTLPPGLKFAGGALSGTPTKAGSYSFAIQATDANLSTRVQEYTMNVDALPPLALKPTLPPGEIRGETRIPVTIQAPRAVRAARLSWDLGKDVQVTRVQPADAGSVVFWQQRGSVLTVDLGFRTVPRPDARIALITVKPAKAVTLKADALGYEARDGSGKMLVDKKRPGSEPVKPAEQPGDPKVDPKAADQKATDQKATDPKTVDPKTVTPADTVEGGPLPSPALPTPSLPPTLPPVTTPPANTPPVPTPTPPANQPAPAPAPQPAPAPQPTPPSGTGGALEHHHHHH,soluble
10,MSQRKAQNDYQKIIRSLSDRIVEAQTPIRVLDAIKWDDGIRQDFLKGRGKHAPKVDRGYYDSRPLAFDASAKKQEFQNIERDITRQLGQFNPVGQIMRRMCKEYRMVIRMLEARGTPDLGLISQELYGSASDAFHAGDPTLADLGLMLSDYLNNIADRGDLKDEPKTLTAKEVVPILQARLNTVFGEEEGTIRVFESDGIVADAAAGADYIKVRADALFNERDVRALEVHEGLVHVGTTLNGLSQPICTFLAKGPPSSTVTQEGLAILMEVIAFASYPTRLRKLTNRTRAIHMAEEGADFLDVFHFYREQGYSLEDSYQNASRVFRGSTPDGLPFTKDLSYLKGFILIYNYIQLAVRKGKLEQIPLLFCGKTTLEDMRTLRQLVDEGLVAPPKYLPPQFRDLNALSAWMCFSNFLNHLSLDRIEADYANILAAALEHHHHHH,not soluble
11,MSQTTTNPHVAVLAFPFSTHAAPLLAVVRRLAAAAPHAVFSFFSTSQSNASIFHDSMHTMQCNIKSYDISDGVPEGYVFAGRPQEDIELFTRAAPESFRQGMVMAVAETGRPVSCLVADAFIWFAADMAAEMGVAWLPFWTAGPNSLSTHVYIDEIREKIGVSGIQGREDELLNFIPGMSKVRFRDLQEGIVFGNLNSLFSRMLHRMGQVLPKATAVFINSFEELDDSLTNDLKSKLKTYLNIGPFNLITPPPVVPNTTGCLQWLKERKPTSVVYISFGTVTTPPPAEVVALSEALEASRVPFIWSLRDKARVHLPEGFLEKTRGYGMVVPWAPQAEVLAHEAVGAFVTHCGWNSLWESVAGGVPLICRPFFGDQRLNGRMVEDVLEIGVRIEGGVFTKSGLMSCFDQILSQEKGKKLRENLRALRETADRAVGPKGSSTENFITLVDLVSKPKDV,soluble
12,MSQVLTTYETPVLPEWVDYNGHLRDAFYLLVFSYATDALMAHIGLDSQNRDASGHSLFTLECHLNFLHEVKEGARVEVRTQLLGHDRKRLHIHHALYLPGSGQALALSEQMLLHVSLDGPRSAPFEGEVLARVEALAEAHRALPVPEGVGRVIGLPPVR,not soluble
13,MSQVMEVVGGKWRLNVLWVINKYQSIRFNQLKREVNGITTIMLTRSLDILITNELVEKVDFQTLPLHVKYQLSSKGKSLMPLLKQINQWGKLYLLEHHHHHH,not soluble
14,MSRCPEDSRTGNGRNGAPDPGELSAMVRKLEIRSRRLVNELFSGEYHSSFKGRGIEFSQVREYQYGDDVRTIDWNTSAHKNDLYVKIFTEERERILMLVLDGSGSMLFGSGRLKKELAAEVSAILAFSAVQNNDMVGLLVFSDTVETYIPPRKGRAHALVILNEIFSMRQCGRKTDIDAALSFLRRTQKRKSIIFLLTDLLGSEYERGMKLLNARHEFVLIHIGDPLDHELPHSGLLDLVDPETGERLTIDAGSRAFLARYAKEQRAKREAVQRQLSRMKVDAVFLDTGKSIIGGLNAFFRHRERKV,not soluble
15,MSRESTVREWRTRVPRYRLLGGRCSDCGRSFYPPAKACPYCGSRNVAETELPRVGRLEAYTVLYSVESGARDRSPVVIGLVDLGVAKVVSEIVDVSDPESLERGVQVEAVFRRIYEDGDEGVIVYGVKFRPKA,not soluble
16,MSRGPSSAVLPSALGSRKLGPRSLSCLSDLDGGVALEPRACRPPGSPGRAPPPTPAPSGCDPRLRPIILRRARSLPSSPERRQKAAGAPGAACRPGCSQKLRVRFADALGLELAQVKVFNAGDDPSVPLHVLSRLAINSDLCCSSQDLEFTLHCLVPDFPPPVEAADFGERLQRQLVCLERVTCSDLGISGTVRVCNVAFEKQVAVRYTFSGWRSTHEAVARWRGPAGPEGTEDVFTFGFPVPPFLLELGSRVHFAVRYQVAGAEYWDNNDHRDYSITCRNHALHMPRGECEESWIHFI,soluble
17,MSRKMTGIVKTFDCKSGKGLITPSDGRKDVQVHISACRQHETEALIPGIRVEFCRINGLRGPTAANVYLS,not soluble
18,MSRLGYVMTKASAKNFKVYINGSARGYRNIIINGAKSWNPSPYLNTVTMGNDVKPNFTVSSSNTNKGSVLAVCNTTYYKSNKLIVKNEITLYKGFRSLSNNHKIETVAHEFGHGFGLGHVKTRNAIMLDKGFINKTKPQKDDFNGIKALYKLEHHHHHH,soluble
19,MSRNMFKLAHISDVHLGPLPRLSIQELFSKRITGFVNWHRNRRKHLFASTLDLLLDDIRTHRADHLAVTGDLVNLASGIEIRAAAAWLRALGDPADTSVVPGNHDAYVPGAYEKSMRAWYDYVRGDLAPPQWQEDRRIFPYLRVRDKVAIVGCSTAVATPPFAASGFFSARQARDTVNMLRAAGEAGLFRVVMIHHPPIRGATAFHKRMIGIRRFAAVISTGGAELVLHGHTHLNTLHWLRGQVQPVPVVGIASASQGPGSIKPPAAYNLFSIDGAPGAWELEHHHHHH,soluble
20,MSRPQFTSLRLSLLALAVSATLPTFAFATETMTVTATGNARSSFEAPMMVSVIDTSAPENQTATSATDLLRHVPGITLDGTGRTNGQDVNMRGYDHRGVLVLVDGVRQGTDTGHLNGTFLDPALIKRVEIVRGPSALLYGSGALGGVISYDTVDAKDLLQEGQSSGFRVFGTGGTGDHSLGLGASAFGRTENLDGIVAWSSRDRGDLRQSNGETAPNDESINNMLAKGTWQIDSAQSLSGLVRYYNNDAREPKNPQTVGASESSNPMVDRSTIQRDAQLSYKLAPQGNDWLNADAKIYWSEVRINAQNTGSSGEYREQITKGARLENRSTLFADSFASHLLTYGGEYYRQEQHPGGATTGFPQAKIDFSSGWLQDEITLRDLPITLLGGTRYDSYRGSSDGYKDVDADKWSSRAGMTINPTNWLMLFGSYAQAFRAPTMGEMYNDSKHFSIGRFYTNYWVPNPNLRPETNETQEYGFGLRFDDLMLSNDALEFKASYFDTKAKDYISTTVDFAAATTMSYNVPNAKIWGWDVMTKYTTDLFSLDVAYNRTRGKDTDTGEYISSINPDTVTSTLNIPIAHSGFSVGWVGTFADRSTHISSSYSKQPGYGVNDFYVSYQGQQALKGMTTTLVLGNAFDKEYWSPQGIPQDGRNGKIFVSYQW,not soluble
21,MSRRAPMFKPLPITLQRGALRLEPLVEADIPELVSLAEANREALQYMDGPTRPDWYRQSLAEQREGRALPLAVRLGVQLVGTTRFAEFLPALPACEIGWTWLDQAQHGSGLNRMIKYLMLKHAFDNLRMVRVQLSTAASNLRAQGAIDKLGAQREGVLRNHRRLAGGRLDDTFVYSITDHEWPQVKAALEASFTG,soluble
